From a protein production outcome set (Wang et al. 2014)

test: label from the status in PepcDB records

| Sequence | protein production |
| --- | --- |
| MHEKTKFRLHSHDVPYGSGSGQQSVTGFPGVVDSNSYWIVKPVPGTTEKQGDAVKSGATIRLQHMKTRKWLHSHLHASPISGNLEVSCFGDDTNSDTGDHWKLIIEGSGKTWKQDQRVRLQHIDTSGYLHSHDKKYQRIAGGQQEVCGIREKKADNIWLAAEGVYLPLNESSK | not failed |
| MHERTGLWRGITAVGALLLAVAIMAGTIMETYRTSLDAFVGTRSQRTVTDQSADNGDSWTYKSEYKTAKEAYEGFKKTAMDEAQETYVLLKNSDNALPLSKSAKITMFGVRSYAPVYGSSGGSVTDGNSTVEITKAFEEEGFQINPSMLKAYQNYFKDKKWTTPQFGGGILPEYEDITKYNDPCELSLDELAKLNPEYKSQYGEYQDAAIVVVGRPAGENGDGYYPGQDGLADGVNTVTGNILSLSDEEMALVNEAKANFSKVIVLVNSTNPMEIANLQDDPDIDAIMWIGYPGAYGFYGVADVLNGTVSPSAHLGDVMAKNSAVAPAMSNYGNVAWKNASDFSEDAAVNSYLMEAEGIYTGYRYYETRYADIVMGNGGDTASAGTYAASDGTVATADGTWDYANEVVYPFGYGLSYTTFEQKLDGVEIKGDKKTAVATVTVKNTGSVEGKSVIQLYASVPYTDYDKKNGVGKSAIQLMDFEKTNALKPGDSQTITMTVDLSNLASYDSNKAKTYIVDPGDYYFSIGDDVHDALNNVLAAQGYSESDGMTAAGDKTKTYTWSWDGGVDADTFATSSTGTKITNQLSDGKYATDYNAFDKGAVTYLTRSDWNGTFPKTYSGISANEEVSKLLNNDFIDLKSDGDVSDITIGDTSSSLTLNDMKGASYDDERWDELTSKVSVKEFMHFAETAFHAIGAIDSVGLQEMTTDDGPGGSDSHYLNEGQYQGKAYADADDYADKSSRVAPSPTNLAYSWNKELAYRNGEVILGESSLVFRLPIMIAPAMNLHRHAYNSRGVEYYSEDPILSGYIGSAVVQGAQSKGVLVNVKHLAFNDQEINRSGIATFMSEQKAREMELRNFQQAFEANGKPASFESDDAKKNTYTQGALGVMTSYNRIGAVASSANAAVMVNILRDEWGFTGYNVTDFTSVSPHAAPKESVLAGTSAFCGFGNQGVKYWDAATLSKDRDMLLAIKQNMHYSLWAIANSNAMNGVNSSTHTENVMTWWRAVYLGVIAASGVVTLIGLAGYTTTRIRPARNADNGPTAASK | failed |
| MHFRLSFISIIYRLLGILLASAFVGWLFDYVLLVMLATSIFLLVWHYHHLFKLINWIWQSKALSPPQAKGVWGYLYDGLYRQVKQQRNKQKQLNEKIRRFRDGAEALPDAALMLSEELTIEWGNKKAQRLLGVRWPDDFGQRIDNLLRAPEFSDYLAHENFEYPCLLVSPIHSDVQLEIRLMAYGSEHVLLLARDISNLQRLEDMRRDFVANVSHELKTPLTVVRGYVEMIQASPEAFDPHWQKAFQTIEGQVSRMDRLVEQLLNLAKVENNSDDEKQCVNMAQLIRTLVDEVTWLNQEKQHQIMLDISTDVSVLGFETELKSACANLLSNAIAYTPPKGCIEVSWRLMGNKAIFSVKDNGDGIKPEHVNRLTERFYRIDRSRSRDTGGSGLGLAIVKHVLHHHQAELIINSHWGQGSEFSIYFDPSTLSNPSR | failed |
| MHGTRRTRKDSPCMPAIHRAPLLRRREFRHEDRNGSLAPALDLIAWSRSAFGWLAHQPYLLLSLTSLFWAGNIVLGRAVAGHVPPVTLSCARWVGAMLLLLPFAWPHLRHDWRKLRAQWKLMIVLSATGFAINNALSYWGLQYTQALNALLMQSSGPLFVALWSLLLFGVRLTWMQATGIALSLLGVLTIILRGDFAALAGIELNRGDLMVAGALCAFGLYSALMPKRPATHPLSLIVVTTGCGALLLLPFSAWEYASGVRPSADWISVATLAYVVIFPSMLAYLCFNRGVALIGPNRSAPFLHLMPVFGSVMAIVLLGEKPELFHLAGYAMVVAGVFIAARR | failed |
| MHIAILGCTSQIAKDLIRSIYVYSQHDLILFGRTPQQTQSWLAENGITSRCSVNQYEEYPNIDHDVVINFVGIGDPSKAAAMGGSIFDITLHYDELVLNELKKYPDRRYLFLSSGAAYGSSFLEPADADTPSTININNLLPQEYYSVAKLHAECRHRSLKEYAIVDLRVFNVFSRTQDLEARFFITDIVRSIHSGTELITSSDMIYRDFMHPKDFYQLVERVLNAPPMNISLDCYSRQPVDKTTLLDEMKKTFGLSYRVKESNMSINATGIKPCYYSKNKRAAEFGYLPEYSSLETIIEETNAILGLQKTVLEHHHHHH | not failed |
| MHILYFLFPKVTFNSFSTPIFFTLISFYSLVTFFPLLSLFIRTSIPSNLINMIIQNSIKGVFVHLDVKMRFFLDFYFLNSLICYSNYIVPFLLAHTLNLITPSVLTTVECDF | failed |
